In assay [1] the target is murine VISTA expressed on EL4 cells (EL4-mVISTA) (murine) (UniProt Q9D659). The assay is described as follows: flow cytometry on EL4-mVISTA cells.
Assay [2] has as its target murine OX40 expressed on cells (CHOK1-mOX40) (murine) (UniProt P47741). Kind of assay: flow cytometry on CHOK1-mOX40 cells. Background: A flow cytometer gives signals particle by particle.
Assay [3] concerns the target hOX40-His (human) (UniProt P43489). Kind of assay: SPR (BioRad ProteOn XPR 360) per Example 5; FIG. 5 legend says biolayer interferometry (Octet); hOX40-His as ligand, analyte at 66.7 nM.

pEC50, pKd: −log10 of the molar value.

Sequence of hOX40-His (human) (P43489 29-216 limits assumed): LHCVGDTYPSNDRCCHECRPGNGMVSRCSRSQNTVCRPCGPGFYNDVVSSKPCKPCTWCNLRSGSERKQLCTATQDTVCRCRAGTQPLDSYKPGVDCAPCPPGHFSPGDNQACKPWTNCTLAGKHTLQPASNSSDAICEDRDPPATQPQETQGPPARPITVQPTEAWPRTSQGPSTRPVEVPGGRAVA
Sequence of murine OX40 expressed on cells (CHOK1-mOX40) (murine) (P47741 20-272): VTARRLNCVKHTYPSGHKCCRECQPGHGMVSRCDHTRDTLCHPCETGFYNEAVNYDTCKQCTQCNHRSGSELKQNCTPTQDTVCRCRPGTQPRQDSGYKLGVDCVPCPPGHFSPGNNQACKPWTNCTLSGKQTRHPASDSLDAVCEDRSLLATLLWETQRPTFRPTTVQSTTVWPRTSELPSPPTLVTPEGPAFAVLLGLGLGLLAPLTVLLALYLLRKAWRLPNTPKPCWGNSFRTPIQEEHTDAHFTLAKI
Sequence of murine VISTA expressed on EL4 cells (EL4-mVISTA) (murine) (Q9D659 33-308): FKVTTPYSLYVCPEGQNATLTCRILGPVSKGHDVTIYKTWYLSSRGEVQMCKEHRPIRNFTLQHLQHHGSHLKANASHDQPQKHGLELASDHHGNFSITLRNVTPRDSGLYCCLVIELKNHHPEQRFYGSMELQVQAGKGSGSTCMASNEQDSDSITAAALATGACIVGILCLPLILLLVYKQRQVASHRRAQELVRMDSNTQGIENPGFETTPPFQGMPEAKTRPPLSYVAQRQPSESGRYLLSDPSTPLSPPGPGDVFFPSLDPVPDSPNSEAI

In the case of “murine VSIG8-Fc-OX40L chimeric protein (from UniProt Q6P3A4 22-262; P43488 51-198) (Fc fusion)”, the pEC50 was 7.25 in assay [1] and 7.80 in assay [2].

In assay [3], “tavolixumab (an anti-human OX40 antibody)” showed a pKd of 9.82, a koff of 5.03e-05 s⁻¹ and a kon of 332000 M⁻¹ s⁻¹.

Broadly, the pEC50 is −log10 of the EC50, conventionally taken in molar units. High values mean a low EC50, low ones a high EC50. Broadly, the pKd is the Kd on a negative log10 scale, so that one unit is a factor of ten. A low value points to a high Kd. By koff is commonly meant the first-order rate constant of dissociation. One may read the kon as the rate constant with which the complex forms. Low values mean slower complex formation, high ones faster complex formation.
